Test results as given in article PMC4522616 (Emerging Microbes & Infections, 2015).

How the values were obtained:
[1] = target: JR-FL Env on pseudovirions (HIV-1 JR-FL (clade B), UniProt Q75760, strain); assay: virus capture assay
[2] = target: gp120 of HIV-1 93MW965 (clade C) (HIV-1 group M subtype C, isolate …, strain); assay: BLI
[3] = target: gp120 of HIV-1 JR-FL (clade B) (HIV-1); assay: BLI
[4] = target: gp120 of HIV-1 BaL (clade B) (HIV-1 group M subtype B, isolate BaL …, UniProt Q2MKA8, strain); assay: ELISA
[5] = target: gp120 of HIV-1 96ZM651 (clade C) (HIV-1 group M subtype C, isolate 96ZM651, strain); assay: ELISA
[6] = target: T1, C4 peptide VGKAMYAPPIRGQIR (gp120 residues 430 to 444, HXB2 numbering) (HIV-1); assay: crystal structure
T1 chain: VGKAMYAPPIRGQIR

B1: rabbit monoclonal antibody R56 (antibody, V domains shown)
VH: QSLEESGGDLVQPGASLTLTCKASGFSFGNNYDMCWVRQAPGKGLEWIGCIETGSSDSAAYATWAKGRFTISKTSSTTVTLQMTSLTAADTATYFCARNFDLWGPGTLVIVSS
VL: QVLTQTPSSVSTAVGSAVTINCQSSQNVYSNNNLAWFQQKPGQPPRLLIYDASKLASGVPSRFKGSGSGTQFTFTISDVQCDDAATFYCLGGYDCSSGDCAAFGGGTEVVVR
binding result [1]: binds

B2: rabbit monoclonal antibody R53 (antibody, V domains shown)
VH: QSLEESGGGPVKPGGTLTLTCKASGIDFSSFYYMCWVRQAPGKGLEWIACIVTDITGESYYATWAKGRFAISKTSSTTVTLQMTSLTAADTATYFCARGDTYGYGDTVYALNLWGPGTLVTVSS
VL: GPVLTQTPPSASEPVGGTVTIKCQASQAIDEYLGWYQQKPGQRPKLLMYYASTLASGVPSRFKGSGSGTQFTLTISDLECADAATYYCQNYYVGSSTNYAFTFGGGTEVVVK
Kd [2]: 3.98 nM
koff [2]: 0.00121 s⁻¹
kon [2]: 304000 M⁻¹ s⁻¹
Kd [3]: 1.96 nM
koff [3]: 0.000309 s⁻¹
kon [3]: 157000 M⁻¹ s⁻¹
binding result [4]: binds
binding result [5]: binds

B3: R53 antigen-binding fragment (Fab) (Fab, V domains shown)
VH: B2 VH
VL: B2 VL
binding result [6]: binds
